Measurements: article PMC2818874

Target: Cytosolic His-tag version of human IRE1α (IRE1ΔN-HIS) (human)

“Cytosolic His-tag version of human IRE1α (IRE1ΔN-HIS) (domain or fragment)” gave a stoichiometry N of 2.
